According to publication PMC7113836:

Biological target: HBcS-NadA-CFHbp (Hepatitis B Virus | Neisseria meningitidis strain MC58) (UniProt Q9JXV4)
Assay: cryo-EM structure; single particle cryoelectron microscopy of purified HBcS-NadA-CFHbp VLPs; 3.4 Å map; HBc T = 4 crystal structure fitted and refined; method details in Supplementary Materials

For “HBcS-NadA-CFHbp (from UniProt Q9JXV4 157-274)”, the stoichiometry N was 240 copies.
